In paper doi:10.1101/2022.10.21.513107 (bioRxiv, 2022):
Changes are numbered by the printed parent chain.

B1: sdAb A37 (VHH)
VHH: QVKLEESGGGLVQAGGSLRLSCVASGSTFIITDMAWYRQAPGKQRELVAGITLRGGTNYADSVKGRFTISRDNVKNTVTLQMNSLKPEDTAVYYCNAKVAEWRNRPDYWGQGTQVTVSS
B2: sdAb C26 (VHH)
VHH: QVQLVESGGGLVQAGGSLRLSCAASGSIYSINAMGWYRQAPGKQRELVAVITSSGSTNYADAVKGRFTISRDNAKNQVYLQMNSLKPEDTAVYYCHAWSPFRGSFSGDALDAWGQGTQVTVSS
B3: sdAb 2A03 (VHH)
VHH: QVQLVESGGGLVQAGGSLRLSCAASGRTSSINIMGWYRQPPGKQREMVATIATGGTTNYAESVKGRFTISRDGAKFVYLQLNDLKPEDTAVYYCNAYRYAVGKNQRAWDIWGQGTQVTVSS
B4: sdAb C38 (VHH)
VHH: QVQLVESGGGVVQAGGSLRLSCAPSGNIFSINTMGWHRQAPGKQREFVARIRSSGQTNYADSVKGRFTISKDSAKDTVYLQMDNLQPEDSAVYYCTFNSGGWGVERKRRDYWGQGTQVTVSS
B5: sdAb 2A04 (VHH)
VHH: B4 VHH with Q3K, V5E, S90T, S99T, K107Q

Tests used:
[1] = target: endogenous HPV16 E6 protein of SiHa cells (Human papillomavirus type 16, SiHa …, UniProt P03126); experiment: immunostaining of cells or tissue
His6MBP-4C/4S E6 = His6MBP-4C/4S E6 (Human papillomavirus type 16, reference …, UniProt P03126, stabilised); experiment: far-Western, overlay or dot blot

Binder	binding result [1]	binding result (His6MBP-4C/4S E6)
B1	binds	–
B2	binds	–
B3	binds	–
B4	–	binds
B5	binds	–
